Source: paper PMC4866608 (Archives of biochemistry and biophysics, 2015)

Assays:
[1] = molecular target: 2-hydroxymuconate semialdehyde dehydrogenase (NahI) from Pseudomonas putida G7, His-tag removed (GH-NahI) (Pseudomonas putida G7); experiment: dynamic light scattering
[2] = molecular target: 2-hydroxymuconate semialdehyde dehydrogenase (NahI) from Pseudomonas putida G7, His-tag removed (GH-NahI) (Pseudomonas putida G7); experiment: small-angle X-ray scattering
[3] = molecular target: T1, NahI (GH-NahI) (Pseudomonas putida, UniProt Q1XGK8); experiment: CD thermal denaturation at […] nm; assay type: binding; details: 50 mM sodium phosphate pH 7.4, 50 mM NaCl, 0.3 mg/mL protein; two-step denaturation
T1 sequence (Q1XGK8 1-486): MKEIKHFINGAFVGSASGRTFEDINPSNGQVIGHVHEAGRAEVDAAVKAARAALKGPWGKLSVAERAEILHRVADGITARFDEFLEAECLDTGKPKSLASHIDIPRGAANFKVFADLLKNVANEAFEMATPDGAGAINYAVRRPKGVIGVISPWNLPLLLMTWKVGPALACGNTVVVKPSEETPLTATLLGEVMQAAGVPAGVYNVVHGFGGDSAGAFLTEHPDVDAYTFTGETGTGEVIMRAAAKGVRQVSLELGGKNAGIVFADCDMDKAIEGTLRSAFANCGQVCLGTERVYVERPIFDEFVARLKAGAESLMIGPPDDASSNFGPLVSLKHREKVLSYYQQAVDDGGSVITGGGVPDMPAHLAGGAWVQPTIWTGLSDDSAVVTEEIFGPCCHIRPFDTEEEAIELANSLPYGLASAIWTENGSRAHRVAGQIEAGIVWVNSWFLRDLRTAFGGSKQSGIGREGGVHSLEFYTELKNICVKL

Row | stoichiometry N [1] | stoichiometry N [2] | second transition temperature of the NAD+ complex (apo enzyme 73.9 °C) [3] [°C] | Compound
1 | 3 | 4 | – | 2-hydroxymuconate semialdehyde dehydrogenase (NahI) from Pseudomonas putida G7, His-tag removed (GH-NahI) (enzyme)
2 | – | – | 76.7 | NC(=O)c1ccc[n+]([C@@H]2O[C@H](COP(=O)(O)OP(=O)(O)OC[C@H]3O[C@@H](n4cnc5c(N)ncnc54)[C@H](O)[C@@H]3O)[C@@H](O)[C@H]2O)c1 [NAD^+]
